Molecular target: seven of the nine datasets (monoUb and the diUb types fitted to a one-site binding model)
Test: SPR; monoUb and all types of diUb immobilized, NZF1 (or its mutants) binding detected; one-site or two-site binding model; two experiments

Substance “TRABID NZF1 (aa 1-33) (from UniProt Q9UGI0 1-33) (domain or fragment)” has a Kd of 190 to 370 µM.
